Data from patent US7371842B2, “Polynucleotide encoding a 35 KDA protein thats binds to WF00144” (Astellas Pharma Inc., priority 2002, dated 2008).

Assay: Aldol cleavage reaction of fructose 1,6-bisphosphate, coupled with TIM/G3PDH, NADH 340 nm
Type: biochemical
Settings: F1,6P2 cleaved, 37° C., 30 minutes, pH 8.0
Procedure: The aldolase activity of the human 35 kd protein was determined as follows, according to the method described in a reference (Novel Biochemistry Experiment Lectures, Vol. 15, Metabolism Abnormality, p. 111, edit. Biochemical Society of Japan, publish. Tokyo Kagaku Dojin-sha, Sep. 22, 1992):
Conjugated with triose phosphate isomerase (TIM) and glycerol 3-phosphate dehydrogenase (G3PDH), the aldol cleavage reaction of fructose 1,6-bisphosphate (F1, 6P2) with the 35 kd protein was determined with NADH.
A reaction liquid having the composition mentioned below was prepared, and reacted at 37° C. for 30 minutes. The enzymatic reaction was monitored through the reduction in the 340 nm absorbance owing to the oxidation of NADH in the reaction liquid. The enzymatic reaction was indicated by the number of mols of F1, 6P2, per mg of the protein, cleaved within 1 minute (μmol/min/mg protein).
Reaction liquid 200 μl: 0.25 mM tris HCl buffer (pH 8.0), 0.15 M NaCl, 0.5 mM F1, 6P2 (from Sigma), human 35 kd protein, human liver TIM (500 μg/ml), rabbit skeletal muscle G3PDH (8 units/ml, from Sigma), 0.3 mM NADH (from Nakarai).
For comparison, a commercial product aldolase, Sigma's rabbit skeletal muscle aldolase (A-type aldolase), and an enzyme-free system were tested in the same manner.

Sigma's commercial product aldolase: commercial product aldolase, Sigma's rabbit skeletal muscle aldolase (A-type aldolase)
Aldolase Activity (μmol/min/mg protein): 0.278 μmol/min/mg protein
